From article PMC3312455 (2009)

T1: VEGFR2/KDR ECD (Homo sapiens, UniProt P35968)
T1 chain: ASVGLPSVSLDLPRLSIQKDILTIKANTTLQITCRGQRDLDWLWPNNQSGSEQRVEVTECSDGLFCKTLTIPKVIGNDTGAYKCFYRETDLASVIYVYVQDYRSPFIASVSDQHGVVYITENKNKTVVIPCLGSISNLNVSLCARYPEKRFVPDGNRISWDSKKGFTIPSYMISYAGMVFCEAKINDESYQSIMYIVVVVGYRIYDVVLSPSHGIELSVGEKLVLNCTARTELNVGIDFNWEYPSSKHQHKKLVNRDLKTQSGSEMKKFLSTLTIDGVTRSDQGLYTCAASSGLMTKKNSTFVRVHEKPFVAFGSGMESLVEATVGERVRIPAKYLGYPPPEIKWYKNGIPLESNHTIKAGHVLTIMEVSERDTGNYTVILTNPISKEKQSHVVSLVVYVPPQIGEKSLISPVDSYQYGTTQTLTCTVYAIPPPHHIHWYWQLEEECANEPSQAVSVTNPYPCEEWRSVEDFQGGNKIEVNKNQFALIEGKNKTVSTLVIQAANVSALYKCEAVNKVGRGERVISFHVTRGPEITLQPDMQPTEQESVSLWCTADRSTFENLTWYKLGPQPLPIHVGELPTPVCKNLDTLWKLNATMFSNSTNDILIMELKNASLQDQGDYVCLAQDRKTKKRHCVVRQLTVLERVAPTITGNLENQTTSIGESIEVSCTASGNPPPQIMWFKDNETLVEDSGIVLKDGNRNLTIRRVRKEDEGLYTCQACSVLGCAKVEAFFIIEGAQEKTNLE

B1: HIV-Tat (protein)
chain: MEPVDPRLEPWKHPGSQPKTACTNCYCKKCCFHCQVCFITKALGISYGRKKRRQRRRAPQGSQTHQVSLSKQPTSQSRGDPTGPKE
B2: VEGF-A165 (protein)
chain: MTDRQTDTAPSPSYHLLPGRRRTVDAAASRGQGPEPAPGGGVEGVGARGVALKLFVQLLGCSRFGGAVVRAGEAEPSGAARSASSGREEPQPEEGEEEEEKEEERGPQWRLGARKPGSWTGEAAVCADSAPAARAPQALARASGRGGRVARRGAEESGPPHSPSRRGSASRAGPGRASETMNFLLSWVHWSLALLLYLHHAKWSQAAPMAEGGGQNHHEVVKFMDVYQRSYCHPIETLVDIFQEYPDEIEYIFKPSCVPLMRCGGCCNDEGLECVPTEESNITMQIMRIKPHQGQHIGEMSFLQHNKCECRPKKDRARQEKKSVRGKGKGQKRKRKKSRYKSWSVPCGPCSERRKHLFVQDPQTCKCSCKNTDSRCKARQLELNERTCRCDKPRR

Target: T1, VEGFR2/KDR ECD
Assay: SPR

Binder | Kd [nM]
B1 | 0.07
B2 | 0.041
